Reference: patent publication JP2000166574A

Target: 抗Fasモノクローナル抗体HFE7A (from mouse-mouse hybridoma HFE7A, FERM BP-5828)
Assay: peptide (200 μg) preincubated with HFE7A (0.25 μg), then flow cytometry on WR19L12a cells

Binder | inhibition of binding of HFE7A to WR19L12a cells [%]
EINCTRTQNT [P100] | 50
KCRCKPNFFC [P110] | 60
